Data as given in article PMC11548041.

Target: T1, EpCAM (endogenous on HuCCT1 cells) (UniProt P16422)
T1 sequence: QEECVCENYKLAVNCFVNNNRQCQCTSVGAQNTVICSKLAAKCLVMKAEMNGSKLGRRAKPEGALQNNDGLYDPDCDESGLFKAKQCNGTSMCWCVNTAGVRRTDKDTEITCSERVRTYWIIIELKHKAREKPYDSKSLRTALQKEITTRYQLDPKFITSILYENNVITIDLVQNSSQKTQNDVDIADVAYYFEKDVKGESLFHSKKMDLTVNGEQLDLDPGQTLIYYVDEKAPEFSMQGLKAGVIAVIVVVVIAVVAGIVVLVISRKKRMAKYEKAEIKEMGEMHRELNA
Experiment: flow cytometry on HuCCT1 cells
Details: Whole cells, 30 min on ice, HuCCT1 biotin block in PBS + 0.2% NaN3, 2.5 mM MgCl2, 0.1 mg/mL yeast total RNA (aptamer binding buffer not separately stated) …

Row | Sequence | Kd (phosphorothioate (marked * in Table 2): C*A*C*ACTTCTAAGAGGG*AACAGACGTCGATCTTTGCGGAACT*CCTG*C*G) [nM] | Kd (phosphorothioate (marked * in Table 2): G*A*C*CCACGGAGGTTG*CGTCCGTG*GGGG*A*C) [nM]
1 | CACACTTCTAAGAGGGAACAGACGTCGATCTTTGCGGAACTCCTGCG [PLD01 (B-aptamer)] | 177 | 
2 | GACCCACGGAGGTTGCGTCCGTGGGGGAC [PLD02 (B-aptamer)] |  | 236
